Bridge positions count the residues as written; N and C are the ends. Ends that are not written are not given here.
Molecular target: TAB-XC154 자가면역항체
Assay: competition: XC154 antibody (100 ng) pre-incubated with 10^11 or 10^12 XC154p1 phage, then flow cytometry on HepG2 or LnCap-LN3 cells

CLPSWFHRC (disulfide 1-9 (inferred); also: displayed on phage) [XC154p1 에피토프 발현 파아지 (…)]
percent inhibition: > 90%

Source: patent KR20120134547A
